# Assay results as given in PMC9746415 (Human Vaccines & Immunotherapeutics, 2022).
# Assay type: physicochemical
# Conditions: pH 7.4
substance,measurement,value
In-house rituximab,SEC-HPLC % mAb Monomer,99.2%
